Laboratory results reported in patent US20250051437A1 (University of California, published 2025).

Columns and labels:
[1] = molecular target: T1, human cadherin-17 (CDH17), endogenously expressed on human cancer cell lines (LS513, SNU-C1, PaTu8988s, … (human, UniProt Q12864 23-832)); experiment: flow cytometry (iQue) on LS513 cells, 0.2 µg Ab
T1 construct: also called LS513 (Colon, CDH17+); HPAF2

[2] = molecular target: T1, human cadherin-17 (CDH17), endogenously …; experiment: flow cytometry (iQue) on SNUC1 cells, 1 µg Ab

B1: humanized anti-CDH17 antibody 07-0663-h7 (antibody, human IgG1, kappa, V domains shown)
VH: QVQLVQSGAEVKKPGSSVKISCKVSGYTFTDHTIHWMRQAPGQGLEWIGYIFPRDDIVVYAQKFQGRATLTADKSTSTAYMELSSLRSEDTAVYYCARPPYYYSRNFYFDYWGQGTTLTVSS
VL: DIQMTQSPSSLSASVGDRVTITCRVSSIISSSKLHWYQQKPGKAPKPLIYGTSTLASGVPSRFSGSGSGTDYTLTISSLQPEDFATYYCQQWSNYPFTFGQGTKLEIKR
notes: Human IgG1 / kappa
[1]
  Antibody Binding Activity by Flow iQue: 2.24e+06
[2]
  Antibody Binding Activity by Flow iQue: 76100
